Residue numbers refer to the chain shown, from its start.
T1: FcγRIIa(R) (human, UniProt P12318 34-217)
T1 construct: extracellular domain; also called 2aR
T1 sequence: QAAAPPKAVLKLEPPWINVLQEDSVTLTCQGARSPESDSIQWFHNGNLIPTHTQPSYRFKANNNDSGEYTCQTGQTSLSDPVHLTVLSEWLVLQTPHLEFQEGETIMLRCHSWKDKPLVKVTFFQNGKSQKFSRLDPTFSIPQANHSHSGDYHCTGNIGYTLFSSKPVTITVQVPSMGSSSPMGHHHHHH

T2: FcγRIIa(H) (human, UniProt P12318 34-217)
T2 construct: extracellular domain; also called 2aH
T2 sequence: T1 sequence with R134H

T3: FcγRIIb (human, UniProt P31994 43-217)
T3 construct: extracellular domain; also called 2b
T3 sequence: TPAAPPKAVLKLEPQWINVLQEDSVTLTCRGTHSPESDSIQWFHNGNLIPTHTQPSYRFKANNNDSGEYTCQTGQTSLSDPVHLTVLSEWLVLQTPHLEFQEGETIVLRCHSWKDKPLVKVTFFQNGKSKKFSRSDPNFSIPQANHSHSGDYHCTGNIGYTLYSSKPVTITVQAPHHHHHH

T4: FcγRIIa(R) extracellular domain with C-terminal His tag (human, UniProt P12318 34-217)
T4 construct: extracellular domain; R131 allotype; also called 2aR; CD32
T4 sequence: T1 sequence

T5: FcγRIIa(H) extracellular domain with C-terminal His tag (human, UniProt P12318 34-217)
T5 construct: extracellular domain; H131 allotype; also called 2aH; CD32
T5 sequence: T1 sequence with R134H

T6: FcγRIIb extracellular domain with C-terminal His tag (human, UniProt P31994 43-217)
T6 construct: extracellular domain; also called 2b; CD32
T6 sequence: T3 sequence

B1: GpH7-A5/GpH7-B3 variant Y300_19Q/GpL16-k0 (antibody, human IgG1, kappa)
heavy 1: not shown
heavy 2: not shown
light: DIVMTQSPLSLPVTPGEPASISCQASESLVHSNRNTYLHWYLQKPGQSPQLLIYKVSNRFSGVPDRFSGSGSGTDFTLKISRVEAEDVGVYYCSQNTHVPPTFGQGTKVEIERTVAAPSVFIFPPSDEQLKSGTASVVCLLNNFYPREAKVQWKVDNALQSGNSQESVTEQDSKDSTYSLSSTLTLSKADYEKHKVYACEVTHQGLSSPVTKSFNRGEC
notes: He Ab: heterodimerized IgG1, one H chain mutated
B2: GpH7-A5/GpH7-B3 variant T335_14T/GpL16-k0 (antibody, human IgG1, kappa)
heavy 1: not shown
heavy 2: not shown
light: B1 light
notes: also called He Ab
B3: GpH7-A5/GpH7-B3 variant E333_18N/GpL16-k0 (antibody, human IgG1, kappa)
heavy 1: not shown
heavy 2: not shown
light: B1 light
notes: heterodimerized IgG1 (He Ab), mutation in one H chain only; also called He Ab
B4: GpH7-A5/GpH7-B3 variant E333_03V/GpL16-k0 (antibody, human IgG1, kappa)
heavy 1: not shown
heavy 2: not shown
light: B1 light
notes: as for B3
B5: GpH7-A5/GpH7-B3 variant E333_13S/GpL16-k0 (antibody, human IgG1, kappa)
heavy 1: not shown
heavy 2: not shown
light: B1 light
notes: as for B3
B6: GpH7-A5/GpH7-B3 variant E333_08L/GpL16-k0 (antibody, human IgG1, kappa)
heavy 1: not shown
heavy 2: not shown
light: B1 light
notes: as for B3
B7: GpH7-A5/GpH7-B3 variant I332_01G/GpL16-k0 (antibody, human IgG1, kappa)
heavy 1: not shown
heavy 2: not shown
light: B1 light
notes: as for B3
B8: GpH7-A5/GpH7-B3 variant A330_06M/GpL16-k0 (antibody, human IgG1, kappa)
heavy 1: not shown
heavy 2: not shown
light: B1 light
notes: as for B3
B9: GpH7-A5/GpH7-B3 variant E333_04F/GpL16-k0 (antibody, human IgG1, kappa)
heavy 1: not shown
heavy 2: not shown
light: B1 light
notes: as for B3
B10: GpH7-A5/GpH7-B3 variant E333_20W/GpL16-k0 (antibody, human IgG1, kappa)
heavy 1: not shown
heavy 2: not shown
light: B1 light
notes: as for B3
B11: GpH7-A5/GpH7-B3 variant E333_14T/GpL16-k0 (antibody, human IgG1, kappa)
heavy 1: not shown
heavy 2: not shown
light: B1 light
notes: as for B3
B12: GpH7-A5/GpH7-B3 variant Y300_20W/GpL16-k0 (antibody, human IgG1, kappa)
heavy 1: not shown
heavy 2: not shown
light: B1 light
notes: as for B1
B13: GpH7-A5/GpH7-B3 variant E333_05P/GpL16-k0 (antibody, human IgG1, kappa)
heavy 1: not shown
heavy 2: not shown
light: B1 light
notes: as for B3
B14: GpH7-A5/GpH7-B3 variant A330_15Y/GpL16-k0 (antibody, human IgG1, kappa)
heavy 1: not shown
heavy 2: not shown
light: B1 light
notes: as for B3
B15: GpH7-A5/GpH7-B3 variant E333_15Y/GpL16-k0 (antibody, human IgG1, kappa)
heavy 1: not shown
heavy 2: not shown
light: B1 light
notes: as for B3
B16: GpH7-A5/GpH7-B3 variant I332_02A/GpL16-k0 (antibody, human IgG1, kappa)
heavy 1: not shown
heavy 2: not shown
light: B1 light
notes: as for B3
B17: GpH7-A5/GpH7-B3 variant E333_11K/GpL16-k0 (antibody, human IgG1, kappa)
heavy 1: not shown
heavy 2: not shown
light: B1 light
notes: as for B3
B18: GpH7-A5/GpH7-B3 variant E333_02A/GpL16-k0 (antibody, human IgG1, kappa)
heavy 1: not shown
heavy 2: not shown
light: B1 light
notes: as for B3
B19: GpH7-A5/GpH7-B3 variant E333_07I/GpL16-k0 (antibody, human IgG1, kappa)
heavy 1: not shown
heavy 2: not shown
light: B1 light
notes: as for B3
B20: GpH7-A5/GpH7-B3 variant A330_05P/GpL16-k0 (antibody, human IgG1, kappa)
heavy 1: not shown
heavy 2: not shown
light: B1 light
notes: as for B3
B21: GpH7-A5/GpH7-B3 variant E333_09D/GpL16-k0 (antibody, human IgG1, kappa)
heavy 1: not shown
heavy 2: not shown
light: B1 light
notes: as for B3
B22: GpH7-A5/GpH7-B3 variant E333_16H/GpL16-k0 (antibody, human IgG1, kappa)
heavy 1: not shown
heavy 2: not shown
light: B1 light
notes: as for B3
B23: GpH7-A5/GpH7-B3 variant E333_12R/GpL16-k0 (antibody, human IgG1, kappa)
heavy 1: not shown
heavy 2: not shown
light: B1 light
notes: as for B3
B24: GpH7-A5/GpH7-B3 variant E333_06M/GpL16-k0 (antibody, human IgG1, kappa)
heavy 1: not shown
heavy 2: not shown
light: B1 light
notes: as for B3
B25: GpH7-A5/GpH7-B3 variant E333_19Q/GpL16-k0 (antibody, human IgG1, kappa)
heavy 1: not shown
heavy 2: not shown
light: B1 light
notes: as for B3
B26: GpH7-A5/GpH7-B3 variant A330_11K/GpL16-k0 (antibody, human IgG1, kappa)
heavy 1: not shown
heavy 2: not shown
light: B1 light
notes: as for B3
B27: GpH7-A5/GpH7-B3 variant E333_01G/GpL16-k0 (antibody, human IgG1, kappa)
heavy 1: not shown
heavy 2: not shown
light: B1 light
notes: as for B3
B28: GpH7-A5/GpH7-B3 variant A330_12R/GpL16-k0 (antibody, human IgG1, kappa)
heavy 1: not shown
heavy 2: not shown
light: B1 light
notes: as for B3

Key:
FcγRIa = target: T7, FcγRIa (human, UniProt P12314 16-292); experiment: SPR, relative to GpH7-A5/GpH7-B3/GpL16-k0 =100
T7 construct: extracellular domain; also called 1a
T7 sequence (P12314 other isoform, or with tags, fused parts or gaps): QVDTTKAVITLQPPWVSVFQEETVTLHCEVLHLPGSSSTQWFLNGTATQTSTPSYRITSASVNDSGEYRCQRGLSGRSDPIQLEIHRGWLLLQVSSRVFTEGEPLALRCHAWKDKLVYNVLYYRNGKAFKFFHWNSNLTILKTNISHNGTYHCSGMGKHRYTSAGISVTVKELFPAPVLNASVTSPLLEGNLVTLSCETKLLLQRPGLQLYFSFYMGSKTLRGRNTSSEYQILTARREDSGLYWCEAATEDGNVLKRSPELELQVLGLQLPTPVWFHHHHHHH

FcγRIIa(R) = target: T1, FcγRIIa(R); experiment: SPR, relative to GpH7-A5/GpH7-B3/GpL16-k0 =100
FcγRIIa(H) = target: T2, FcγRIIa(H); experiment: SPR, relative to GpH7-A5/GpH7-B3/GpL16-k0 =100
FcγRIIb = target: T3, FcγRIIb; experiment: SPR, relative to GpH7-A5/GpH7-B3/GpL16-k0 =100
[1] = target: T8, FcγRIa extracellular domain with C-terminal His tag (human, UniProt P12314 16-292); experiment: SPR; % of GpH7-A5/GpH7-B3/GpL16-k0
T8 construct: extracellular domain; also called 1a; CD64
T8 sequence (P12314 other isoform, or with tags, fused parts or gaps): as above

[2] = target: T4, FcγRIIa(R) extracellular domain with …; experiment: SPR; % of GpH7-A5/GpH7-B3/GpL16-k0
[3] = target: T5, FcγRIIa(H) extracellular domain with …; experiment: SPR; % of GpH7-A5/GpH7-B3/GpL16-k0
[4] = target: T6, FcγRIIb extracellular domain with …; experiment: SPR; % of GpH7-A5/GpH7-B3/GpL16-k0
[5] = target: T9, FcγRIIIa extracellular domain with C-terminal His tag (human, UniProt P08637 17-208); experiment: SPR; % of GpH7-A5/GpH7-B3/GpL16-k0
T9 construct: extracellular domain; also called 3a; CD16
T9 sequence (P08637 other isoform, or with tags, fused parts or gaps): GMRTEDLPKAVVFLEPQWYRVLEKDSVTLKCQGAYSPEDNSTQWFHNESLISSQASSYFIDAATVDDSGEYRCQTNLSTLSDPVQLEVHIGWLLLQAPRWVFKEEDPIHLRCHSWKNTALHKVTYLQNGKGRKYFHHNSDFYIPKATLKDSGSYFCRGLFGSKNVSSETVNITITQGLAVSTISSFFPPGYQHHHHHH

Binder	He/Con 1a (FcγRIa)	He/Con 2aR (FcγRIIa(R))	He/Con 2aH (FcγRIIa(H))	He/Con 2b (FcγRIIb)	He/Con 1a [1]	He/Con 2aR [2]	He/Con 2aH [3]	He/Con 2b [4]	He/Con 3a [5]
B1	106%	119%	107%	142%					
B2					110%	116%	112%	116%	104%
B3					91.4%	118%	110%	98.2%	76.2%
B4					99.4%	135%	112%	120%	106%
B5					97.6%	125%	115%	106%	106%
B6					96.8%	140%	116%	123%	102%
B7					102%	92.2%	102%	96.6%	101%
B8					108%	107%	101%	90.9%	139%
B9					96.9%	139%	116%	122%	104%
B10					93.9%	132%	106%	116%	104%
B11					96.7%	135%	115%	111%	100%
B12	106%	104%	103%	110%					
B13					96.9%	143%	112%	126%	100%
B14					108%	114%	106%	107%	122%
B15					95.8%	137%	114%	122%	101%
B16					100%	96.9%	115%	114%	103%
B17					96.6%	128%	112%	104%	97.7%
B18					97.7%	128%	115%	108%	108%
B19					96.5%	142%	113%	124%	100%
B20					105%	129%	92.6%	154%	152%
B21					98%	141%	119%	122%	115%
B22					95.4%	119%	114%	108%	106%
B23					96.7%	127%	110%	104%	92.2%
B24					96.7%	132%	110%	110%	100%
B25					93.7%	130%	113%	110%	101%
B26					107%	124%	118%	107%	91.8%
B27					97.2%	127%	112%	105%	101%
B28					103%	116%	116%	95.8%	77.3%
